# The nanobody polyreactivity screen of Harvey et al. (2022)
# Experiment: yeast display, Sf9 membrane polyspecificity reagent, FACS + sequencing; frameworks hold sequencing errors
# In short: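 Sorting gates, low and high (top ~1%), were placed on anti-HA fluorescence to track expression and on streptavidin fluorescence to track reagent binding. A clone's polyreactivity label is taken from the gate it came out of. The reagent was 10% biotinylated, detergent-solubilized Sf9 membrane, applied for 1 hour at 4 °C to galactose-induced yeast display cells.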
row,Sequence,polyreactivity (PSR sort gate)
1,QVQLVESGGGLVQAGGSLRLSCAASGRIFVYNAMGWYRQAPGKERELVAAISRSGSSTYYADSVKGRFTISRDNAKNTVYLQMNSLKPEDTAVYYCNAVLSRWTQSGKYRYRYFGFEYWGQGTQVTVSS,high polyreactivity
2,QVQLVESGGGLVQAGGSLRLSCAASGRIFVYNAMGWYRQAPGKERELVAAISWSGGSTYYADSVKGRFTISRDNAKNTVYLQMNSLKPEDTAVYYCAAYYSARRGHYRNSYGYDYWGQGTQVTVSS,high polyreactivity
3,QVQLVESGGGLVQAGGSLRLSCAASGRIFVYNAMGWYRQAPGKERELVAAITYSVDSTYYADSVKGRFTISRDNAKNTVYLQMNSLKPEDTAVYYCAADDFHYVIHAYYSSGVDYWGQGTQVTVSS,low polyreactivity
4,QVQLVESGGGLVQAGGSLRLSCAASGRIFVYNAMGWYRQAPGKERELVASISSTTSTYYADSVKGRFTISRDNAKNTVYLQMNSLKPEDTAVYYCNARYQTRYGRYWYKVRGMDYWGQGTQVTVSS,high polyreactivity
5,QVQLVESGGGLVQAGGSLRLSCAASGRIFVYNAMGWYRQAPGKERELVASISWSGDSTYADSVKGRFTISRDNAKNTVYLQMNSLKPEDTAVYYCAAYSQADYQNMDYWGQGTQVTVSS,low polyreactivity
6,QVQLVESGGGLVQAGGSLRLSCAASGRIFVYNVMGWYRQAPGKERELVAAISWGTGSTYADSVKGRFTISRDNAKNTVYLQMNSLKPEDTAVYYCAADWLSTKNDYWGQGTQVTVSS,low polyreactivity
7,QVQLVESGGGLVQAGGSLRLSCAASGRIFVYNVMGWYRQAPGKERELVADISVGGGSTYYADSVKGRFTISRDNAKNTVYLQMNSLKPEDTAVYYCAASYYSGQSVRDDIMYYWGQGTQVTVSS,low polyreactivity
8,QVQLVESGGGLVQAGGSLRLSCAASGRIFVYYDMGWYRQAPGKEREVVAAISSTGGSTNYADSVKGRFTISRDNAKNTVYLQMNSLKPEDTAVYYCNAALWRIAYPYGYYQYDYWGQGTQVTVSS,low polyreactivity
9,QVQLVESGGGLVQAGGSLRLSCAASGRIFVYYTMGWYRQAPGKERELVAAITGSGGSTYYADSVKGRFTISRDNAKNTVYLQMNSLKPEDTAVYYCAVYDSYRKFKYWGQGTQVTVSS,high polyreactivity
10,QVQLVESGGGLVQAGGSLRLSCAASGRIFWDYGMGWYRQAPGKERELVAVITWGGGSTYYADSVKGRFTISRDNAKNTVYLQMNSLKPEDTAVYYCAKEYHYYYWGQGTQVTVSS,low polyreactivity
11,QVQLVESGGGLVQAGGSLRLSCAASGRIFWFYAMGWYRQATGKERELVAAINTSVGRTHYADSVKGRFTISRDNAKNTVYLQMNSLKPEDTAVYYCASDVKRYGWEYGYWGQGTQVTVSS,low polyreactivity
12,QVQLVESGGGLVQAGGSLRLSCAASGRIFWFYTMGWYRQAPGKERELVAAISTSGGSTYYADSVKGRFTISRDNAKNTVYLQMNSLKPEDTAVYYCAAQNGYYPQHDYWGQGTQVTVSS,high polyreactivity
13,QVQLVESGGGLVQAGGSLRLSCAASGRIFWGYAMGWYRQAPGKERELVAAINRGSSTYYADSVKGRFTISRDNAKNTVYLQMNSLKPEDTAVYYCAVKGYLPYTGIFDYWGQGTQVTVSS,high polyreactivity
14,QVQLVESGGGLVQAGGSLRLSCAASGRIFWINALGWYRQAPGKERELVAAISWRGDSTYYADSVKGRFTISRDNAKNTVYLQMNSLKPEDTAVYYCAATWYSWGSEFDYWGQGTQVTVSS,high polyreactivity
15,QVQLVESGGGLVQAGGSLRLSCAASGRIFWRNALGWYRQAPGKERELVAAITYSGGSTYYADSVKGRFTISRDNAKNTVYVQMNSLNPEDTAVYYCNTVEGWRYYGQSLYAYYYWGQGTQVTVSS,high polyreactivity
16,QVQLVESGGGLVQAGGSLRLSCAASGRIFWRNAMGWNRQAPGKERELVAAISSGGSTYYADSVKGRFTISRDNAKNTVYLQMNSLKPEDTAVYYCAARSSWRGGSYDHFERDYWGQGTQVTVSS,high polyreactivity
17,QVQLVESGGGLVQAGGSLRLSCAASGRIFWSYAMGWYRQAPGKERELVAAISYSGGGTYYADSVKGRFTISRDNAKNTVYLQMNSLKPEDTAVYYCAAETYYAPYDYWGQGTQVTVSS,high polyreactivity
18,QVQLVESGGGLVQAGGSLRLSCAASGRIFWTNAMGWYRQAPGKERELVAAISRSGGSTYYADSVKGRFTISRDNAKNTVYLQMNSLKPEDTAVYYCAARAGRRPYDYWGQGTQVTVSS,high polyreactivity
19,QVQLVESGGGLVQAGGSLRLSCAASGRIFWTNDMGWYRQAPGKERELVAVISSDTGSTDYADSVKGRFTISRDNAKNTVYLQMNSLKPEDTAVFYCNKRGLSRVNYWGQGTQVTVSS,low polyreactivity
20,QVQLVESGGGLVQAGGSLRLSCAASGRIFWTYAMGWYRPAPGKERELVAAITWRGGSTSYADSVKGRFTISRDNAKNTVYLQMNSLKPEDTAVYYCNARYSGYSPWGNDYWGQGTQVTVSS,high polyreactivity
21,QVQLVESGGGLVQAGGSLRLSCAASGRIFWVNAMGWYRQAPGKEREFVAAISWSGGSTYADSVKGRFTISRDNAKNTVYLQMNSLKPEDTAVYYCAADRYNGRYGYWGQGTQVTVSS,high polyreactivity
22,QVQLVESGGGLVQAGGSLRLSCAASGRIFWVNAMGWYRQAPGKERELVARIRGRSGSTYYADSVKGRFTISRDNAKNTVYLQMHSLKPEDTAVYYCNADFNRKVAGTPEVDYWGQGTQVTVSS,high polyreactivity

row,Sequence,polyreactivity (PSR sort gate)
1,QVQLVESGGGLVQAGGSLRLSCAASGRIFWYNAMGWYRQAPAKERELVAGITRSGGRTYYADSVKGRFTISRDNAKNTVYLQMNSLKPEDTAVYYCAAAPYARRDYEYWGQGTQVTVSS,high polyreactivity
2,QVQLVESGGGLVQAGGSLRLSCAASGRIFWYNAMGWYRQAPGKERELVAVISTRGGRTYYADSVKGRFTISRDNAKNTVYLQMNSLKPEDTAVYYCAAEFLNKAVGGVTSIYDSWGQGTQVTVSS,low polyreactivity
3,QVQLVESGGGLVQAGGSLRLSCAASGRIFWYYAMGWYRQAPGKERELVAAINSGGNTNYADSVKGRFTISRDNAKNTVYLQMNSLKPEDTAVYYCNAGRRYDTYPGDYWGQGSQVTVSS,high polyreactivity
4,QVQLVESGGGLVQAGGSLRLSCAASGRIFWYYAMGWYRQAPGKERELVAAITRGGITTYADSVKGRYTISRDNAKNTVYLQMNSLKPEDTAVYYCNAVPWYGRMDYWGQGTQVTVSS,low polyreactivity
5,QVQLVESGGGLVQAGGSLRLSCAASGRIFWYYAMGWYRQAPGKERELVAAITRSGASTYYADSVKGRFTISRDNAKNTVYLQMNSLKREDTAVYYCAADTGRYRYVYEYYYWGLGTQVTVSS,high polyreactivity
6,QVQLVESGGGLVQAGGSLRLSCAASGRIFWYYAMGWYRQAPGKERELVARISSSGGSTYYADSVKGRFTISRDNAKNTVYLQMNSLKTDYTAVYFWAKERYSGSSRYPMDYWGQGTQVTVSS,high polyreactivity
7,QVQLVESGGGLVQAGGSLRLSCAASGRIFWYYAMGWYRQAPGKEWELVATITYSGVRTYYADSVKGRFTISRDNAKNTVYLQMNSLKPEDTAVYYCAAVPGASVYGYYWKFGYWGQGTQVTVSS,high polyreactivity
8,QVQLVESGGGLVQAGGSLRLSCAASGRIFWYYTMGWYRQAPGKERELVAAISNGGSTYYADSVKGRFTISRDNAKNTVYLQMNSLKPEDTAVYYCAAVGARGGYFRMDYWGQGTQVTVSS,high polyreactivity
9,QVQLVESGGGLVQAGGSLRLSCAASGRIFYANAMGWYRQAPGKERELVAAISSGGSTYYADSVKGRFTISRDNAKNTVYLQMNSLKPEDTAVYYCAALYWVYFYSEYGPWRYDYWGQGTQVTVSS,low polyreactivity
10,QVQLVESGGGLVQAGGSLRLSCAASGRIFYDNAMGWYRQAPGKERELVAAISYSGDSTYYADSVKGRFTISRDNAKNTVYVQMNSLKPEDTAVYYCAAVYISQGAFAYDYWGQGTQVTVSS,low polyreactivity
11,QVQLVESGGGLVQAGGSLRLSCAASGRIFYENAMGWYRQAPGKDRELVAAISGSGGSTYYADSVKGRFTISRDNAKNTVYLQMNSLKPEDTAVYYCNAYRRVPGYDYWGQGTQVTVSS,high polyreactivity
12,QVQLVESGGGLVQAGGSLRLSCAASGRIFYEYAMGWYRQAPGKDRELVAAISNSGGSTYYAHSVKGRFTISRDNAKNTVYLQMNSLQPEDTAVYYCAATVRLPNGVRYGYWGQGTQVTGSS,high polyreactivity
13,QVQLVESGGGLVQAGGSLRLSCAASGRIFYFNAKGGYRQAPGKERELVAAIRNDTRTYYADSVKGRFTISRDNAKNTVYLQLNSLKPEDTAVYYCAARVYFSVITPIKYNYWGQGTQVTVSS,high polyreactivity
14,QVQLVESGGGLVQAGGSLRLSCAASGRIFYFNAMGWYRQAPGKEREFVASINSIGDSTYYADSVKGRFTISRDYAKNTVYLQMNRLKPEDTAVYYCNADHGVINYRLDYWGQGTQVTVSS,low polyreactivity
15,QVQLVESGGGLVQAGGSLRLSCAASGRIFYFNAMGWYRQAPGKERELVAAISWSGSRTFYADSVTGRFTISRDNAKNTVYLQMNSLKPEDTAVYYCAVRGYMWNAGNTIRRDYWGQGTQVTVSS,high polyreactivity
16,QVQLVESGGGLVQAGGSLRLSCAASGRIFYFYALGWYRQAPGKERDLVAAINIGGSTNYADSVKGRFTISRDNAKNTVYLQMNSLNPEDTAVYYCNAEAYSRSDYYRYDYWGQGTQVTVSS,low polyreactivity
17,QVQLVESGGGLVQAGGSLRLSCAASGRIFYFYAMGWYRQAPGKERELVAAITGSAGGTYYADSVKGRFTISRDNAKNTVYLQMNSLKPEDTAVYYCNAGSTRYWRSRYDYWGQGTQVTVSS,low polyreactivity
18,QVQLVESGGGLVQAGGSLRLSCAASGRIFYFYAMGWYRQAPGKERELVASISSGSSTNYADSVKGRFTISRDNAKNTVYLQMNSLKPEDTAVYYCAAQPWHGSRPRSYYWGQGTQVTVSS,high polyreactivity
19,QVQLVESGGGLVQAGGSLRLSCAASGRIFYFYAMGWYRQAPGKERELVASISYSGGNTYYADSVKGRFTISRDNAKNTVYLQMNSLKPEDNAVYYCNVLPNTGARGYYYWGQGTQVTVSS,low polyreactivity
20,QVQLVESGGGLVQAGGSLRLSCAASGRIFYGNTMGWYRQAPGKERELVAAITWRGGSTYYADSVKGRFTISRDNAKNTVYLQMNSLKPEVTAVYYCAAVSYRGRGYWGQGTQVTVSS,high polyreactivity
21,QVQLVESGGGLVQAGGSLRLSCAASGRIFYGYAIGWYRQAPGKEREFVARINVSGTSTFYADSVKGRFTISRDNAKNTVYLQMTSLKPEDTAVYDCAARGLPSNDYYYVHGYIMDYWGQGTQVTVSS,low polyreactivity
